This note sets out measurements from patent publication US20210301025A1 (published 2021).

Test [1] deals with T1, human EGFR on cells (A431, NCI-H292, NCI-H322, NCI-H441) (human, UniProt P00533 25-1210). Description: cell-based or functional assay.
For test [2], the target named is T2, human c-Met on cells (NCI-H441, NCI-H292, U87-MG) (human, UniProt P08581 25-1390). Description: cell-based or functional assay.
Test [3] concerns the target T1, human EGFR on cells (A431, NCI-H292, …). In words: cell-based or functional assay. This is another data set of the same source.
Test [4] deals with T2, human c-Met on cells (NCI-H441, …). In words: cell-based or functional assay. This is another data set of the same source.
The target of test [5] is T3, recombinant human extracellular domain of EGFR fused to an IgG1 Fc (human, UniProt P00533 25-645).
T3 construct: Bought (R&D Systems); captured on anti-human Fc IgG for SPR; also called EGFR-Fc
In words: SPR (ProteOn) per Example 3. The source says: (§1) Select EGFR/c-Met molecules were characterized for their affinity to both EGFR and c-Met, their ability to inhibit EGFR and c-Met autophosphorylation, and their effect on proliferation of HGF cells. Binding affinity of the bispecific EGFR/c-Met molecules to recombinant EGFR and/or c-Met extracellular domain was further by surface Plasmon resonance methods using a Proteon Instrument (BioRad) according to protocol described in Example 3.

Test [6] concerns the target T4, recombinant c-Met extracellular domain (human, UniProt P08581 16-932).
T4 construct: Construct used for SPR is not described further (may be the Fc chimera, as the protocol captures on anti-human Fc)
Description: SPR (ProteOn) per Example 3.
From the text: as §1

In test [7] the target is T1, human EGFR on cells (A431, NCI-H292, …). Description: A431 cell competition with biotinylated EGF. The protocol: A431 cells were plated at 5,000/well in opaque black 96-well plates and allowed to attach overnight at 37° C., in a humidified 5% CO₂ atmosphere. […] Cells were washed 3 times with 150 μL/well of FACS stain buffer. Cells were incubated with 50 μL/well of streptavidin-phycoerythrin conjugate (Invitrogen) diluted 1:100 in FACS stain buffer for 20 minutes at room temperature. Cells were washed 3 times with 150 μL/well of FACS stain buffer, after which wells were filled with 100 μL of FACS stain buffer and read for fluorescence at 600 nm using an Acumen eX3 reader. Data were plotted as the raw fluorescence signal against the logarithm of FN3 domain molar concentration and fitted to a sigmoidal dose-response curve with variable slope using GraphPad Prism 4 (GraphPad Software) to calculate IC₅₀ values.

Test [8] shares this target. Description: A431 cell binding, anti-His-Alexa488 fluorescence. The protocol: A431 cells were plated at 5,000/well in opaque black 96-well plates and allowed to attach overnight at 37° C., in a humidified 5% CO₂ atmosphere. […] Supernatant was removed and cells were washed 3 times with 150 μL/well of FACS stain buffer. Cells were incubated with 50 μL/well of anti-penta His-Alexa488 antibody conjugate (Qiagen) diluted 1:100 in FACS stain buffer for 20 minutes at room temperature. Cells were washed 3 times with 150 μL/well of FACS stain buffer, after which wells were filled with 100 μL of FACS stain buffer and read for fluorescence at 488 nm using an Acumen eX3 reader. Data were plotted as raw fluorescence signal against the logarithm of the FN3 domain molar concentration and fitted to a sigmoidal dose-response curve with variable slope using GraphPad Prism 4 (GraphPad Software) to calculate EC₅₀ values.

For test [9] the target is unchanged. Description: cell-based or functional assay. This is another data set of the same source.
For test [10], the target named is T3, recombinant human extracellular domain …. Description: SPR (ProteOn), EGFR-Fc captured on anti-human Fc IgG. As for the experimental part: Select EGFR-binding FN3 domains were screened to identify those with slow off-rates (koff) in binding to EGFR-Fc on a ProteOn XPR-36 instrument (Bio-Rad) to facilitate selection of high affinity binders. Goat anti-human Fc IgG (R&D systems), at a concentration of 5 μg/mL, was directly immobilized via amine coupling (at pH 5.0) on all 6 ligand channels in horizontal orientation on the chip with a flow rate of 30 μL/min in PBS containing 0.005% Tween-20. The immobilization densities averaged about 1500 Response Units (RU) with less than 5% variation among different channels. EGFR-Fc was captured on the anti-human Fc IgG surface to a density around 600 RU in vertical ligand orientation. All tested FN3 domains were normalized to a concentration of 1 μM and tested for their binding in horizontal orientation. All 6 analyte channels were used for the FN3 domains to maximize screening throughput. The dissociation phase was monitored for 10 minutes at a flow rate of 100 μL/min. The inter-spot binding signals were used as references to monitor non-specific binding between analytes and the immobilized IgG surface, and were subtracted from all binding responses. The processed binding data were locally fit to a 1:1 simple Langmuir binding model to extract the koff for each FN3 domain binding to captured EGFR-Fc.
Binding affinity of selected EGFR-binding FN3 domains to recombinant EGFR extracellular domain was further characterized by surface Plasmon resonance methods using a Proteon Instrument (BioRad). The assay set-up (chip preparation, EGFR-Fc capture) was similar to that described above for off-rate analysis. Selected EGFR binding FN3 domains were tested at 1 μM concentration in 3-fold dilution series in the horizontal orientation. A buffer sample was also injected to monitor the baseline stability.

B1: ECB147v3-PEG24 (designed binder)
chain: MLPAPKNLVVSEVTEDSARLSWDDPWAFYESFLIQYQESEKVGEAIVLTVPGSERSYDLTGLCPGTEYTVSIYGVHNVYKDTNMRGLPLSAIFTTAPCPAPAPAPLPAPKNLVVSRVTEDSARLSWTAPDAAFDSFWIRYFEFLGSGEAIVLTVPGSERSYDLTGLCPGTEYVVNIMSVKGGSISPPLSAIFTTAPCPAPAPAPLAEAKVLANRELDKYGVSDYYKNLINNAKTVEGVKALLDEILAALP
modifications: PEG24-maleimide on the engineered cysteines
Take B1: the “IC50 of inhibition of EGF-stimulated EGFR phosphorylation, NCI-H292 cells” value in [1] stood at 1.6 nM. Moreover, the “IC50 of inhibition of HGF-stimulated c-Met phosphorylation, NCI-H292 cells” value in [2] came to 0.5 nM.

B2: ECB106 (designed binder, not shown: small tags and cut ends)
chain: MLPAPKNLVVSEVTEDSARLSWDDPHAFYESFLIQYQESEKVGEAIVLTVPGSERSYDLTGLKPGTEYTVSIYGVHNVYKDTNIRGLPLSAIFTTAPAPAPAPAPLPAPKNLVVSRVTEDSARLSWTAPDAAFDSFWIRYFEFLGSGEAIVLTVPGSERSYDLTGLKPGTEYVVNILGVKGGKISPPLSAIFTT
notes: Bispecific: P54AR4-83v23, (AP)5, P114AR7P94-A3v22
The Kd is the equilibrium constant for the complex coming apart. For the molecule B2, the “pEGFR inhibition in H292 cells IC50” value in test [3] worked out at 367 nM. Also, in test [4], the “pMet inhibition in H441 cells IC50” value amounted to 53.3 nM. Moreover, the Kd in test [5] is 16.7 nM; in [6], 5.1 nM.

B3: ECB109 (designed binder, not shown: small tags and cut ends)
chain: MLPAPKNLVVSEVTEDSARLSWDDPHAFYESFLIQYQESEKVGEAIVLTVPGSERSYDLTGLKPGTEYTVSIYGVHNVYKDTNIRGLPLSAIFTTAPAPAPAPAPLPAPKNLVVSRVTEDSARLSWTAPDAAFDSFWIRYFEFLGSGEAIVLTVPGSERSYDLTGLKPGTEYVVNILSVKGGSISPPLSAIFTT
notes: Bispecific: P54AR4-83v23, (AP)5, P114AR7P95-C5v2
Take B3: in [3], the “pEGFR inhibition in H292 cells IC50” value worked out at 432 nM. Moreover, the “pMet inhibition in H441 cells IC50” value in test [4] worked out at 26 nM. In addition, the results for the Kd in [5] and in test [6] were 17.3 nM and 2.1 nM, respectively.

B4: ECB108 (designed binder, not shown: small tags and cut ends)
chain: MLPAPKNLVVSEVTEDSARLSWDDPHAFYESFLIQYQESEKVGEAIVLTVPGSERSYDLTGLKPGTEYTVSIYGVHNVYKDTNIRGLPLSAIFTTAPAPAPAPAPLPAPKNLVVSRVTEDSARLSWTAPDAAFDSFWIRYFEFVSKGDAIVLTVPGSERSYDLTGLKPGTEYVVNILGVKGGSISPPLSAIFTT
notes: Bispecific: P54AR4-83v23, (AP)5, P114AR9P122-A7v2
On to B4, for which, in [3], the “pEGFR inhibition in H292 cells IC50” value is 814 nM. Further, the “pMet inhibition in H441 cells IC50” value in test [4] was 126 nM. Besides, the figures for the Kd in test [5] and in test [6] were 15.3 nM and 25.5 nM, respectively.

B5: ECB107 (designed binder, not shown: small tags and cut ends)
chain: MLPAPKNLVVSEVTEDSARLSWDDPHAFYESFLIQYQESEKVGEAIVLTVPGSERSYDLTGLKPGTEYTVSIYGVHNVYKDTNIRGLPLSAIFTTAPAPAPAPAPLPAPKNLVVSRVTEDSARLSWTAPDAAFDSFWIRYFEFVGSGEAIVLTVPGSERSYDLTGLKPGTEYVVNILGVKGGSISPPLSAIFTT
notes: Bispecific: P54AR4-83v23, (AP)5, P114AR9P121-A6v2
Turning to B5, the “pEGFR inhibition in H292 cells IC50” value in [3] is 812 nM. The “pMet inhibition in H441 cells IC50” value in [4] worked out at 29.9 nM. Moreover, the Kd was determined as 16.9 nM in test [5] and 9 nM in [6].

B6: P54AR4-81 (designed binder, not shown: small tags and cut ends)
chain: LPAPKNLVVSEVTEDSLRLSWDYDLGVYFDSFLIQYQESEKVGEAINLTVPGSERSYDLTGLKPGTEYTVSIYGVHNVYKDTNMRGLPLSAEFTT
The term IC50 denotes the concentration that inhibits the measured activity by half. As usually defined, the EC50 is the concentration giving half of the maximal effect. Higher therefore signals a need for much substance. For the molecule B6, in test [7], the IC50 is 121 nM. In test [8], this molecule gave an EC50 of 84 nM.

B7: P53A1R5-17 (designed binder, not shown: small tags and cut ends)
chain: LPAPKNLVVSEVTEDSLRLSWADPHGFYDSFLIQYQESEKVGEAINLTVPGSERSYDLTGLKPGTEYTVSIYGVHNVYKDTNMRGLPLSAEFTT
As for B7, in test [9], the “NCI-H292 Growth IC50” value came out at 86 nM, the “NCI-H322 Growth IC50” value was determined as 65 nM and the “Phospho-EGFR IC50 (A431 cells)” value is greater than 2500 nM. Besides, the IC50 in [7] stood at 9.8 nM. The molecule also came in with an EC50 in [8] of 4 nM. Moreover, the Kd in [10] stood at 1.89 nM.

B8: P54AR4-48 (designed binder, not shown: small tags and cut ends)
chain: LPAPKNLVVSEVTEDSLRLSWDDPRGFYESFLIQYQESEKVGEAINLTVPGSERSYDLTGLKPGTEYTVSIYGVHNVYKDTNMRGLPLSAEFTT
Turning to B8, the “Phospho-EGFR IC50 (A431 cells)” value in test [9] was determined as 170 nM. The molecule further displayed an IC50 in [7] of 9.8 nM. Moreover, a half-maximal effect in test [8] (EC50) was put at 12 nM. Further, the Kd in test [10] is 7.78 nM.

B9: P54AR4-83 (designed binder, not shown: small tags and cut ends)
chain: LPAPKNLVVSEVTEDSLRLSWDDPWAFYESFLIQYQESEKVGEAINLTVPGSERSYDLTGLKPGTEYTVSIYGVHNVYKDTNMRGLPLSAEFTT
As for B9, in test [9], the “NCI-H292 Growth IC50” value is 5.9 nM, the “NCI-H322 Growth IC50” value came to 9.2 nM and the “Phospho-EGFR IC50 (A431 cells)” value amounted to 18 nM. This molecule also registered an IC50 in test [7] of 1.8 nM. Also, the EC50 in test [8] was 2.2 nM. The Kd in [10] turned out to be 0.255 nM.

B10: P54AR4-17 (designed binder, not shown: small tags and cut ends)
chain: LPAPKNLVVSEVTEDSLRLSWTYDRDGYDSFLIQYQESEKVGEAINLTVPGSERSYDLTGLKPGTEYTVSIYGVHNVYKDTNMRGLPLSAEFTT
On to B10, for which the “Phospho-EGFR IC50 (A431 cells)” value in [9] was determined as 184 nM. For the same molecule, in test [7], the IC50 came out at 21 nM. The molecule further registered an EC50 in test [8] of 16 nM. The Kd in [10] was determined as 9.62 nM.

B11: P54AR4-74 (designed binder, not shown: small tags and cut ends)
chain: LPAPKNLVVSEVTEDSLRLSWGYNGDHFDSFLIQYQESEKVGEAINLTVPGSERSYDLTGLKPGTEYTVSIYGVHNVYKDTNMRGLPLSAEFTT
Regarding B11, the midpoint of the response in [8], the EC50, lay at 77 nM.

B12: P54AR4-73 (designed binder, not shown: small tags and cut ends)
chain: LPAPKNLVVSEVTEDSLRLSWTWPYADLDSFLIQYQESEKVGEAINLTVPGSERSYDLTGLKPGTEYTVSIYGVHNVYKDTNMRGLPLSAEFTT
notes: also called P54AR4-37
For the molecule B12, in [9], the “NCI-H292 Growth IC50” value is 83 nM, the “NCI-H322 Growth IC50” value was 73 nM and the “Phospho-EGFR IC50 (A431 cells)” value is 141 nM. The same molecule returned an IC50 in test [7] of 4.6 nM. This molecule had an EC50 in test [8] of 9.4 nM. The Kd in test [10] was found to be 0.197 nM.

B13: P54CR4-31 (designed binder, not shown: small tags and cut ends)
chain: LPAPKNLVVSEVTEDSLRLSWTAPDAAFDSFLIQYQESEKVGEAINLTVPGSERSYDLTGLKPGTEYTVSIYGVLGSYVFEHDVMLPLSAEFTT
B13: in [9], the “NCI-H292 Growth IC50” value stood at 1150 nM, the “NCI-H322 Growth IC50” value was greater than 3070 nM and the “Phospho-EGFR IC50 (A431 cells)” value was found to be 179 nM. The molecule also came in with an IC50 in test [7] of 55 nM. The Kd in test [10] was 0.383 nM.
